Experimental data from patent publication US20240366624A1, “METHODS AND COMPOSITIONS FOR TREATING THROMBOTIC DISEASE” (Washington University, priority 2023, published 2024).
Residue numbers refer to the chain shown, from its start.

B1: wtERO1α: recombinant wild-type ERO1α (protein)
chain: EEQPPETAAQRCFCQVSGYLDDCTCDVETIDRFNNYRLFPRLQKLLESDYFRYYKVNLKRPCPFWNDISQCGRRDCAVKPCQSDEVPDGIKSASYKYSEEANNLIEECEQAERLGAVDESLSEETQKAVLQWTKHDDSSDNFCEADDIQSPEAEYVDLLLNPERYTGYKGPDAWKIWNVIYEENCFKPQTIKRPLNPLASGQGTSEENTFYSWLEGLCVEKRAFYRLISGLHASINVHLSARYLLQETWLEKKWGHNITEFQQRFDGILTEGEGPRRLKNLYFLYLIELRALSKVLPFFERPDFQLFTGNKIQDEENKMLLLEILHEIKSFPLHFDENSFFAGDKKEAHKLKEDFRLHFRNISRIMDCVGCFKCRLWGKLQTQGLGTALKILFSEKLIANMPESGPSYEFHLTRQEIVSLFNAFGRISTSVKELENFRNLLQNIH
B2: mERO1α: activity-null ERO1α-Cys94Ser (protein)
chain: B1 chain with C71S

Legend:
[1] = test system: Ero1α KO mice; assay: Intravital microscopy, laser-induced cremaster arteriolar injury, rescue in Ero1α KO mice; type: in vivo, mouse; conditions: 4 μg/g BW into Ero1α KO mice
Description: FIG. 2 (A-C): DyLight 649-conjugated anti-CD42c and Alexa 488-conjugated rabbit IgG or polyclonal anti-ERO1α antibodies (0.3 μg/g body weight [BW]) were injected into wild type (WT) mice for intravital microscopy. Platelet accumulation and extracellular Ero1α were detected at the site of laser-induced cremaster arteriolar injury. FIG. 2A: Representative images. FIG. 2B and FIG. 2C: The median integrated fluorescence intensities of anti-CD42c (F platelet) and anti-ERO1α antibodies (F Ero1α; n=41-43 arterioles in 6 WT mice per group). FIG. 2(D-F): Intravital microscopy with WT control and Ero1α conditional knockout (CKO) and knockout (KO) mice. After laser-induced cremaster arteriolar injury, platelet accumulation and fibrin generation were detected by injection of DyLight 649-conjugated anti-CD42c and Alexa 488-conjugated anti-fibrin antibodies, respectively. FIG. 2D: Representative images. FIG. 2E and FIG. 2F: The median integrated fluorescence intensities of anti-CD42c (F platelet) and anti-fibrin (F fibrin) antibodies (n=36-44 arterioles in 6 mice per group). Quantification of the antibody signal at a different time point after laser injury. FIG. 2G and FIG. 2H: Ero1α KO mice were treated with recombinant wtERO1α or mutant ERO1α (m ERO1a) (Cys94Ser), 4 μg/g BW. After laser injury, platelets and fibrin were detected as described above (n=36-38 arterioles in 6 mice per group). FIG. 2I: The time to occlusion (TTO) was measured by a Doppler blood flow meter in WT control, Ero1α CKO/KO, and β3 KO mice after the application of 6.5% FeCl3 to a carotid artery (n=8-11 mice per group). FIG. 2J and FIG. 2K: After amputating the tail tip (5 mm), tail bleeding times and hemoglobin (Hb) contents were measured in WT control, Ero1α CKO/KO, and β3 KO mice (n=8-9 mice per group). Bars represent the median value. P values were determined by Mann-Whitney U test (FIG. 2E, FIG. 2F, and FIG. 2(1-K)) or ANOVA and Dunn test (FIG. 2G and FIG. 2H).
Intravital microscopy was performed in a mouse model of laser-induced cremaster arteriolar injury as previously described. WT (C57BL/6), littermate WT control, and CKO and KO male mice (8-10 weeks old) were anesthetized with intraperitoneal injection of ketamine and xylazine. The cremaster muscle was exteriorized and superfused with 37° C. bicarbonate-buffered saline throughout the experiment. Arteriolar wall injury was induced by laser ablation (Photonics Instruments) as previously described. Multiple thrombi were generated in at least 3 to 4 different arterioles of 1 mouse, with new thrombi formed upstream of earlier thrombi to minimize any contribution from thrombi generated earlier in the mouse. […]

[2] = test system: Ero1α-null platelets; assay: Platelet aggregation, Ero1α-null platelets; type: cell-based, mouse; conditions: 50 μg/mL protein, 0.025 U/mL thrombin
Description: FIG. 7(A-L) is an exemplary embodiment of crucial intracellular ERO1α (endoplasmic reticulum oxidoreductase 1a) for platelet activation, aggregation, and thrombus formation in accordance with the present disclosure. FIG. 7A: Ex vivo platelet thrombus formation in a flow chamber assay. Adherent and aggregated platelets were stained with rhodamine-conjugated phalloidin and imaged by confocal microscopy. Representative images (bar, 10 μm). Surface coverage and thrombus volume were measured (mean±SD, n=4). FIG. 7(B-E): Aggregation and ATP secretion of wild type (WT) and Ero1α-null platelets were induced by 0.025 U/mL thrombin, 0.05 μg/mL CRP (collagen-related peptide), 0.5 μM A23187, or 2.5 μM ADP. […] Quantification graphs of aggregation and ATP secretion are presented as the mean±SD (n=3-4). FIG. 7G and FIG. 7H: P-selectin exposure and αIIbβ3 integrin activation of WT and Ero1α-null platelets were analyzed by flow cytometry. The data are presented as the geometric mean fluorescence intensity (MFI) value (mean±SD, n=3-4). […] P values determined by unpaired Student t test (FIG. 7(A-E) and FIG. 7(G-1)), ANOVA and Dunnett test (FIG. 7F), or Mann-Whitney U test (FIG. 7K and FIG. 7L). […]
FIG. 10(A-E) is an exemplary embodiment of 15E9 not affecting platelet activation and aggregation in accordance with the present disclosure. […] P values determined by unpaired Student's t-test (vs. mIgG1). […]

| Molecule | rescue of fibrin generation [1] | rescue of platelet thrombus formation [1] | rescue of the defect in Ero1α-null platelet aggregation [2] |
| --- | --- | --- | --- |
| B1 | minimal rescue effect | minimal rescue effect | did not rescue |
| B2 | did not show any effect | did not show any effect |  |
